In the Human Domainome abundance scans (Beltran et al. 2025):
± gives the uncertainty stated by the source.

B1: GAS2-like protein 1, residues 209 to 276; numbered along this chain, Q99501 (parent)
chain: DELVREILGRCTCPDQFPMIKVSEGKYRVGDSSLLIFVRVLRSHVMVRVGGGWDTLEHYLDKHDPCRC

Variants of: B1
Assay: abundance fitness (aPCA) (normalised: wild type 0, dead -1); higher = more abundant; growth selection in yeast, the domain comes from the species named
Conditions: Homo sapiens
DELVREILGRCTCPDQFPMIKVSEGKYRVGDSSLLIFVRVLRSHVMVRVGGGWDLLEHYLDKHDPCRC gave an abundance fitness of -0.145 ± 0.046.
DELVREILGRCTCPDQFPMIKVSEGKYRVGDSSLLIFVRVLRSHVMVRVGGGWDQLEHYLDKHDPCRC gave an abundance fitness of -0.431 ± 0.065.
With DELVREILGRCTCPDQFPMIKVSEGKYRVGDSSLLIFVRVLRSHVMVRVGGGWDSLEHYLDKHDPCRC the abundance fitness was 0.027 ± 0.05.
In the case of DELVREILGRCTCPDQFPMIKVSEGKYRVGDSSLLIFVRVLRSHVMVRVGGGWDNLEHYLDKHDPCRC, the abundance fitness is reported as -0.185 ± 0.08.
With DELVREILGRCTCPDQFPMIKVSEGKYRVGDSSLLIFVRVLRSHVMVRVGGGWDKLEHYLDKHDPCRC the abundance fitness was -0.489 ± 0.14.
DELVREILGRCTCPDQFPMIKVSEGKYRVGDSSLLIFVRVLRSHVMVRVGGGWDWLEHYLDKHDPCRC gave an abundance fitness of -0.801 ± 0.14.
With DELVREILGRCTCPDQFPMIKVSEGKYRVGDSSLLIFVRVLRSHVMVRVGGGWDMLEHYLDKHDPCRC the abundance fitness was -0.512 ± 0.086.
Work on DELVREILGRCTCPDQFPMIKVSEGKYRVGDSSLLIFVRVLRSHVMVRVGGGWDRLEHYLDKHDPCRC yielded an abundance fitness of -0.09 ± 0.039.
Variant DELVREILGRCTCPDQFPMIKVSEGKYRVGDSSLLIFVRVLRSHVMVRVGGGWDILEHYLDKHDPCRC has an abundance fitness of -0.817 ± 0.1.
DELVREILGRCTCPDQFPMIKVSEGKYRVGDSSLLIFVRVLRSHVMVRVGGGWDVLEHYLDKHDPCRC showed an abundance fitness of -0.773 ± 0.11.
In the case of DELVREILGRCTCPDQFPMIKVSEGKYRVGDSSLLIFVRVLRSHVMVRVGGGWDPLEHYLDKHDPCRC, the abundance fitness is reported as -0.282 ± 0.092.
Work on DELVREILGRCTCPDQFPMIKVSEGKYRVGDSSLLIFVRVLRSHVMVRVGGGWDYLEHYLDKHDPCRC yielded an abundance fitness of -0.033 ± 0.092.
In the case of DELVREILGRCTCPDQFPMIKVSEGKYRVGDSSLLIFVRVLRSHVMVRVGGGWDTLEHLLDKHDPCRC, the abundance fitness is reported as -0.749 ± 0.073.
For DELVREILGRCTCPDQFPMIKVSEGKYRVGDSSLLIFVRVLRSHVMVRVGGGWDTLEHPLDKHDPCRC, the abundance fitness was -0.954 ± 0.14.
With DELVREILGRCTCPDQFPMIKVSEGKYRVGDSSLLIFVRVLRSHVMVRVGGGWDTLEHNLDKHDPCRC the abundance fitness was -1.02 ± 0.41.
In the case of DELVREILGRCTCPDQFPMIKVSEGKYRVGDSSLLIFVRVLRSHVMVRVGGGWDTLEHMLDKHDPCRC, the abundance fitness is reported as -0.767 ± 0.13.
Variant DELVREILGRCTCPDQFPMIKVSEGKYRVGDSSLLIFVRVLRSHVMVRVGGGWDTLEHGLDKHDPCRC has an abundance fitness of -0.904 ± 0.12.
Work on DELVREILGRCTCPDQFPMIKVSEGKYRVGDSSLLIFVRVLRSHVMVRVGGGWDTLEHDLDKHDPCRC yielded an abundance fitness of -1.03 ± 0.43.
For DELVREILGRCTCPDQFPMIKVSEGKYRVGDSSLLIFVRVLRSHVMVRVGGGWDTLEHALDKHDPCRC, the abundance fitness was -0.927 ± 0.13.
DELVREILGRCTCPDQFPMIKVSEGKYRVGDSSLLIFVRVLRSHVMVRVGGGWDTLEHELDKHDPCRC showed an abundance fitness of -0.946 ± 0.14.
Variant DELVREILGRCTCPDQFPMIKVSEGKYRVGDSSLLIFVRVLRSHVMVRVGGGWDTLEHSLDKHDPCRC has an abundance fitness of -0.583 ± 0.059.
For DELVREILGRCTCPDQFPMIKVSEGKYRVGDSSLLIFVRVLRSHVMVRVGGGWDTLEHVLDKHDPCRC, the abundance fitness was -0.568 ± 0.08.
For DELVREILGRCTCPDQFPMIKVSEGKYRVGDSSLLIFVRVLRSHVMVRVGGGWDTLEHRLDKHDPCRC, the abundance fitness was -0.886 ± 0.097.
For DELVREILGRCTCPDQFPMIKVSEGKYRVGDSSLLIFVRVLRSHVMVRVGGGWDTLEHTLDKHDPCRC, the abundance fitness was -0.862 ± 0.17.
With DELVREILGRCTCPDQFPMIKVSEGKYRVGDSSLLIFVRVLRSHVMVRVGGGWDTLEHQLDKHDPCRC the abundance fitness was -0.55 ± 0.12.
Variant DELVREILGRCTCPDQFPMIKVSEGKYRVGDSSLLIFVRVLRSHVMVRVGGGWDTLEHHLDKHDPCRC has an abundance fitness of -1.03 ± 0.29.
DELVREILGRCTCPDQFPMIKVSEGKYRVGDSSLLIFVRVLRSHVMVRVGGGWDTLEHFLDKHDPCRC gave an abundance fitness of 0.139 ± 0.11.
DELVREILGRCTCPDQFPMIKVSEGKYRVGDSSLLIFVRVLRSHVMVRVGGGWDTLEHKLDKHDPCRC showed an abundance fitness of -0.782 ± 0.13.
DELVREILGRCTCPDQFPMIKVSEGKYRVGDSSLLIFVRVLRSHVMVRVGGGWDTLEHILDKHDPCRC gave an abundance fitness of -0.962 ± 0.21.
For DELVREILGRCTCPDQFPMIKVSEGKYRVGDSSLLIFVRVLRSHVMVRVGGGWDTGEHYLDKHDPCRC, the abundance fitness was -0.546 ± 0.062.
With DELVREILGRCTCPDQFPMIKVSEGKYRVGDSSLLIFVRVLRSHVMVRVGGGWDTKEHYLDKHDPCRC the abundance fitness was -0.868 ± 0.13.
DELVREILGRCTCPDQFPMIKVSEGKYRVGDSSLLIFVRVLRSHVMVRVGGGWDTFEHYLDKHDPCRC showed an abundance fitness of -0.3 ± 0.088.
DELVREILGRCTCPDQFPMIKVSEGKYRVGDSSLLIFVRVLRSHVMVRVGGGWDTDEHYLDKHDPCRC gave an abundance fitness of -0.852 ± 0.19.
For DELVREILGRCTCPDQFPMIKVSEGKYRVGDSSLLIFVRVLRSHVMVRVGGGWDTVEHYLDKHDPCRC, the abundance fitness was -0.967 ± 0.11.
Variant DELVREILGRCTCPDQFPMIKVSEGKYRVGDSSLLIFVRVLRSHVMVRVGGGWDTMEHYLDKHDPCRC has an abundance fitness of -0.628 ± 0.12.
DELVREILGRCTCPDQFPMIKVSEGKYRVGDSSLLIFVRVLRSHVMVRVGGGWDTWEHYLDKHDPCRC showed an abundance fitness of -0.883 ± 0.15.
For DELVREILGRCTCPDQFPMIKVSEGKYRVGDSSLLIFVRVLRSHVMVRVGGGWDTHEHYLDKHDPCRC, the abundance fitness was -0.959 ± 0.21.
For DELVREILGRCTCPDQFPMIKVSEGKYRVGDSSLLIFVRVLRSHVMVRVGGGWDTCEHYLDKHDPCRC, the abundance fitness was -0.916 ± 0.28.
DELVREILGRCTCPDQFPMIKVSEGKYRVGDSSLLIFVRVLRSHVMVRVGGGWDTQEHYLDKHDPCRC gave an abundance fitness of -1.13 ± 0.39.
